Article PMC4736438, “Cation–π Interactions Contribute to Substrate Recognition in γ‐Butyrobetaine Hydroxylase Catalysis” (Chemistry (Weinheim an Der Bergstrasse, Germany), 2015)

B1: psBBOX (Pseudomonas sp. AK-1) (protein)
chain: NAIADYRTFPLISPLASAASFASGVSVTWADGRVSPFHNLWLRDNCPCGDCVYEVTREQVFLVADVPEDIQVQAVTIGDDGRLVVQWDDGHASAYHPGWLRAHAYDAQSLAEREAARPHKHRWMQGLSLPVYDHGAVMQDDDTLLEWLLAVRDVGLTQLHGVPTEPGALIPLAKRISFIRESNFGVLFDVRSKADADSNAYTAFNLPLHTDLPTRELQPGLQFLHCLVNDATGGNSTFVDGFAIAEALRIEAPAAYRLLCETPVEFRNKDRHSDYRCTAPVIALDSSGEVREIRLANFLRAPFQMDAQRMPDYYLAYRRFIQMTREPRFCFTRRLEAGQLWCFDNRRVLHARDAFDPASGDRHFQGCYVDRDELLSRILVLQR
notes: recombinant, purified on HisTrap and Superdex S200; metal-free buffer

Columns and labels:
[1] = molecular target: T1, psBBOX (Pseudomonas sp. AK-1, UniProt P80193); experiment: 1H NMR (CPMG) protein titration; format: binding
T1 construct: recombinant, purified on HisTrap and Superdex S200; metal-free buffer
T1 sequence (P80193 1-383): B1 chain

[2] = substrate: C[N+](C)(C)CCCC(=O)[O-]; experiment: LC-MS hydroxylation kinetics; format: biochemical, Pseudomonas sp. AK-1; conditions: […] psBBOX, […] FeSO4, […] 2OG, […] ascorbate, Tris pH […] K
Description: LC-MS hydroxylation kinetics on psBBOX

Row | Molecule | Kd [1] | Km [2] | Vmax [2] | kcat [2]
1 | C[N+](C)(C)CCCC(=O)[O-] [compound 1, γBB] | 5 µM |  |  | 
2 | B1 |  | 1000 ± 210 µM | 169 µM/min | 7.02 ± 0.77 s⁻¹
